Experimental data as given in the nanobody polyreactivity screen of Harvey et al. (2022).

Experiment: yeast display, Sf9 membrane polyspecificity reagent, FACS + sequencing; frameworks hold sequencing errors
Summary of the method: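 Genes from sorted yeast were amplified by colony PCR, read by MiSeq 2 × 250 sequencing and filtered on CDR length. These cells carried a synthetic nanobody library in Saccharomyces cerevisiae BJ5465 and were sorted by FACS into low and high (top ~1%) gates on anti-HA and streptavidin fluorescence. Polyreactivity is labelled according to the gate of origin.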
In the case of “QVQLVESGGGLVQAGGSLRISCAASGITLYGNVMGWYRQAPGKERELVAAISGGSTFYADSVKGRFTISRDNAKNTVYLQMNSLKPEDTAVYYCAAEWYGYGSNVPYYYWGQGTQVTVSS”, the “polyreactivity (PSR sort gate)” value is reported as “low polyreactivity”. In the case of “QVQLVESGGGLDHAGGRLRLSCAASGSIFIYYAMGWYRQAPGKERELVAAISNGGSTNYADSVKGRFTFSRDNAKNTVYLQMNSLKPEDTAVYYCNTDWGYFHGVRAYLGYGYWGQGTQVTVSS”, the “polyreactivity (PSR sort gate)” value is reported as “low polyreactivity”. With “QVQLVESGGGLVQAGGSLRLSCAASGSTFNPYAMGWYRQAPGKERELLAAITWSSDDTYYADSVKGRFTISRDNAKNTVYLQMNSLKPEDTAVYYCAADVIGDLRWYGDEYWGQGTQVTESS” the “polyreactivity (PSR sort gate)” value was “low polyreactivity”. For “QVQLVESGGGLVQAGGSLRLSCAASGITFYGYAMGWYRQAPGKERELVAAISGNGGRTYYADSVKGRFTISRDNAKNTVYLQMNSLKPEDTAVYYCNVKVRSRRTGDRYDYWGQGTQVTVSS”, the “polyreactivity (PSR sort gate)” value was “high polyreactivity”. With “QVQLVESGGGLVQAGGSLRLSCAASGSTFVDYAMGWYRPAPGKERELVAAINSDGGGTYYADSVKGRFTISRDNAKNTVYLQMNSLKPEDTAVYYCAAVGYTTYRRYDYWGQGTQVTVSS” the “polyreactivity (PSR sort gate)” value was “low polyreactivity”. For “QVHLVESGGGLVQAGGSLRLSCAASVRTFYRNAMGWYRQAPGKERELVAAITRSGSTNYADSVKGRFTISRDNAKNTVYLQMNSLKPEDTAVYYCAAKFFRNTYSYGMDYWGQGTQVTVSS”, the “polyreactivity (PSR sort gate)” value was “high polyreactivity”. For “QVQLVESGGGLVQAGGSLRLSCAASGIIFGPNAMGWYRQAPGKERELVAGIDWSTDSTYYADSVKGRFTLSRDNAKNTVYLQMNSLKPEDTAVYYCAVAENKRFGSVGYYYWGQGTQVTVSS”, the “polyreactivity (PSR sort gate)” value was “low polyreactivity”. For “QVQLVESGGGLVQAGGSLRLSCAASGRTFISYAMGWYRQAPGKERELVAAISWSGGRTSYADSVKGRFTISRDNAKNTVYLHMNSLKPEDTAVYYCNAQYNSWFAIKDYDYWGQGTQVTVSS”, the “polyreactivity (PSR sort gate)” value was “low polyreactivity”. In the case of “QVQLVESGGGLVQAGGSLRLSCAASGSIFVVYAMGWYRQAPGKERELVAGISDGDNTNYADSVKGRVTISRDNAKNTVYLQMNSLKPEDTAVYYCNADGTSRNLEGFDYWGQGTQVTVSS”, the “polyreactivity (PSR sort gate)” value is reported as “low polyreactivity”. For “QVQLVESGGGLVQAGGSLRLSCAASGRTFFYNAMGWYRQAPGKERELVARITQSGVITYYADSVKGRFTISRDNAKNTVYLQMNSLKPEDTAVYYCNADDTYSPFRGVSYDYWGQGTQVTVSS”, the “polyreactivity (PSR sort gate)” value was “low polyreactivity”. With “QVQLVESGGGLLQAGGSLRLSCAASGRIFVNYAMGWYRQAPGKERELVAVISRSGGGTNYADSVKGRFTISRDNAKNTVYLQMNSLKQEDTAVYYCAADSYYYPYDYWGQGTQVTVSS” the “polyreactivity (PSR sort gate)” value was “high polyreactivity”. For “QVQLVESGGGLVQAGGSLRLICAASGRPSVLMLMGLYRQEPGKERELVAAIDDSTDTTYYADSVKGRFTISRDNAKNTVYLQMNSLKPDVTAGYYCADEEGYVKFSGSWSYGYDYWGQGTQVTVSS”, the “polyreactivity (PSR sort gate)” value was “high polyreactivity”. In the case of “QVQLVESGGGLVQAGGSLRLSCAASGFIFRQYAMGWYIQAPGKERELVAAITWSGTRTYYADSVKGRFTISRDNAKNTVYLQMNSLKPEDTAVYYCNAGYPKYGYDYWGQGTQVTVSS”, the “polyreactivity (PSR sort gate)” value is reported as “high polyreactivity”. With “QVQLVESGGGLVQTGGSLRLSCAASGSTFYPNTMGWYRQAPGKERELVAAITNGGSTNYADSVKGRFTISRDNAKNTVYLQMNSLKPEDTAVYYCAALYYRFLLGWYKYGYWGQGTQVTVSS” the “polyreactivity (PSR sort gate)” value was “high polyreactivity”. In the case of “QVQLVESGGGLVQAGGSLRLSCAASGRIFVSNARGWYRQSPGKECELVAAISKSAARTAYADSVKGRFTISRDTAKNTVYLQMNSLKPEDTAVYYCNADRYRLYGESKGEGNYWGQGTQVTVSS”, the “polyreactivity (PSR sort gate)” value is reported as “high polyreactivity”. For “QVQLVESGGGLVQAGGSLRLSCAASGLIFANNAMGWYRQAPGKERELVAVISRGGRTYYADSVKGRFTISRDNAKNTVYLQMNSLKPEDTAVYYCAKPVLVGLGARYVYWGQGTQVTVSS”, the “polyreactivity (PSR sort gate)” value was “high polyreactivity”. With “QVQLVESGGGLVQAGGSLRLSCASSGSTIRSYAMGWYRQAPGKERELVAVISSGDSTYYADSVKGRFTISRDNAKNTVYLQMNSLKPDDTAVYYCAADSYVLGRWYGYWGQGTQVTVSS” the “polyreactivity (PSR sort gate)” value was “low polyreactivity”. With “QVQLVESGGGLVQAGGSLRLSCAASGRTFHSYAMGWYRPAPGKETELVAGISWGGTRTTYADSVTGRFTISRDNAKNTVYLQMNSLKPEDTAVYYCNAVYYALGRSPPDYGYWGQGTQVTVSS” the “polyreactivity (PSR sort gate)” value was “low polyreactivity”. For “QVQLVESGGGLVQAGGSLRLSCAASGIFTRYAMGWYRQAPGKERELVAAISRGGGSTYYADSVKGLFTISRDNAKNTCYLQMNSLKPEDTAVYYCNTYKRPRSPGPKFYYWGEGTQVTVSS”, the “polyreactivity (PSR sort gate)” value was “high polyreactivity”. In the case of “QVQLVESGGGLVQAGGSLRLSCAGSGRTFRTYTRGWYRQAPGKERELVAAISWSGSSTYYADSVKGRFTISRDNAKNTVYLQMNSLKPEDTAVYYCAARGLYDYGYWGQGTQVTVSS”, the “polyreactivity (PSR sort gate)” value is reported as “high polyreactivity”. For “QVQLVESGGGLVQAGGSLRLSCAASGSTFSTYAMGWYRQAPGKERELVAAISRTGGSTYYADSVKGRFTISRDNAKNTVYLQMNSLKPEDTAVYYCATGDSGGYDYWGQGTQVTVSS”, the “polyreactivity (PSR sort gate)” value was “low polyreactivity”. With “QVQLVESGGGLVQAGGSLRLSCAASGRIFPPNAMGWYRQAPGKERELVAGITSSGDTTYYADSVKGRFTISRDNAKNTDYLQMNSLKPEDTAVYYCAKDEVYADDRSALFDYWGQGTQVTVSS” the “polyreactivity (PSR sort gate)” value was “low polyreactivity”. For “QVQRVESGGGLVQAGGSLRLSCAASGRNFTRYAMGWYRQAPGKERELVASISRRGGSTYYADSVKGRFTISRDNAKNTVYLQMNSLKPEDTAVYYCNALVIARNIEMDYWGQGTQVTVSS”, the “polyreactivity (PSR sort gate)” value was “high polyreactivity”. With “QVQLVESGGGLVQAGGSLRLSCAASGRIFDDYAMGRYRQAPGKERELVAAISWSGGSTYYADSVKGRFTISRDNAKNTVYLQMNSQKPVDTAVYYCSAPYHSYKRIGYDYWGQGTQVSVSS” the “polyreactivity (PSR sort gate)” value was “low polyreactivity”. In the case of “QVQLVESGGGLVQAGGSLRLSCAASGIIFRRYAMGWYRQAPGKERELVAAISSGGRTYYADSVKGRFTISRDNAKNTVYLQMNSLKPEDTAVYYCNARAFARYWWYEYWGQGTQVTVSS”, the “polyreactivity (PSR sort gate)” value is reported as “high polyreactivity”. In the case of “QVQHVESGVGLVQAGGSLRLSCAASGSIFVHNAMGWYRQAPGKERELVAGISARAASTYYADSVKGRFTISRDNAKNTVYLQMNSLKPEDTAVYYCAADRIPGYRVYGFYYWGQGTQVTVSS”, the “polyreactivity (PSR sort gate)” value is reported as “low polyreactivity”. With “KLQLVESGRGLVQEGGSLRLSCAASGSTFGANAMGWYRHAPGKASEFVAAISRSGVRTYYADSVKGRFTISRDNAKNTVYLQMNSQKPEDTAVYYCAAYGYWWTYTRDDYWGQGTQGTVSS” the “polyreactivity (PSR sort gate)” value was “low polyreactivity”. In the case of “QVQLVESGGGLVQAGVSLRLSCAASGRTFIGNAMGWYRQAPGKEREFVAAISRRGGSTYYADSVKGRFTISRDNAKNTVYLQMNSLKPEDTAVYYCAAGQTTTGILTYYYWGQGTQVTVSS”, the “polyreactivity (PSR sort gate)” value is reported as “high polyreactivity”. With “QVQLVESGGGLVQAGGSLRLSCAASGSIFIYYAMGWYRQAPGKERELVAAISSSGDSTNYADSVKGRFTISRDNAKNTVYLQMNSLKPEDTAVYYCAADPYYFYIWYWWPSFDYWGQGTQVTVSS” the “polyreactivity (PSR sort gate)” value was “low polyreactivity”. For “QVQLVESGGGLVQAGGSLRLSCAASGSIFVENAMGWYRQAPGEERELVAAISSSGDSTYYADSVKGRFTISRDNAKNTVYLQINSLKPEDTAVYYCNRRRPRYYWGQGTQVTVSS”, the “polyreactivity (PSR sort gate)” value was “high polyreactivity”. With “QVQLVESGGGLVLAGGSLRLSCAASGRPFYGNTMGWYRQAPGKERELVAAISYSGGTTSYADSVKGRFTISRDNAKNTVYLQMNSLKPEDTAVYYCAKRYSYWWTSGYDYWGQGTQVTVSS” the “polyreactivity (PSR sort gate)” value was “high polyreactivity”.
